Measured values from the DeepSol protein solubility set.

assay: soluble on expression in E. coli; label from the status in PepcDB or PDB records

| Sequence | soluble on expression in E. coli |
| --- | --- |
| MAHHHHHHMMRERAAALDDLNALLTVNKDHPQGLALRMSLNTQLGNLVDAHRDGKHLVRVYKALNKPDKSQQTSEKVHRLERYTVRWTALSDLWSQPVGAYTAATNDAVLMRKYRECVDLLARIIHEFSMESVELRLRRAACALAADDNIAATQELKYVTQRSPQNLDAIALNAQALRRLGALDQSMSELRRCLNLDPEYAPCANLHKLIRQQQRMTKNIEKRLQEKKFEAVVQLIAETRAAEPHAPYEEQLAAWHCEALVSLRSTDEGIRVCQALVDRYDGANNPTVFDAHIRLAELHLLDDNIAAAEAALQKAREIRQHDGKVEEMRLKIEKLKRTGPRKDYYKILGLKKTASAQEIRRAYRKLAKSSHPDQLRSKDMTDREREKQEKMFRDVNEAKEVLLDEEKRARYDSGEDVNQPAGQRGEPFFGSHFAGGFPGGFPGGFPGGFPGGFPGGFHQQRDGGVHQQFFFFNREN | not soluble |
| MCVHTRKPDGLHPKPVSHCPVIDTGQSEWRSFTFTTICMGFRPRQAYRQPSPIANETENTMSNSNIQQEAQDIHDQLPESVDASPEDIEERLTTLVDDYRVPLDEAQRSVVSTYLSDSDVDRDDVSSENENQQVDLEEITEAEQWVDITAKVADLWEPRSDSIAQVGLLGDETGTIKFTKWAKSDLEALTEGQVYRLGNVVTDEYQGQYSVKLNRTTTIEALDQDIEVGDDTTDAEGALVDIQSGSGLIKRCPEDDCTRVLQNGRCSEHGEGEGEFDLRIKGVIDNGDTVQEVIFDKEATEQVADITLAQAQEMAMDALDTSVVADEIREVTLGRYYRVQGPELGRYLLVNEFEQLAEMHDPEQLLITARSI | soluble |
| MTIDKLKLNTINLRNTFSNRSKPPISIITSTNKPKYFRNTIKNYTRLNYRYKELILIFNIDNIDIDYYKSYAEKIPNVMVFQLNECYSLGYCLNFGVNQSKYNYIAKMDDDDYYGPNYLTDEINAFNYTDAKIIGKCKYFTYFEDTRDLSINNYSQSYDYTNFIAGGTFLIKKELFKTYKFRDVNMSEDAGFLDDCSSHGIKIYSIDPFNYVYMRHKSLNEHTWKIPTTALKKQYFHFYKTTNYIPIVKILEHHHHHH | not soluble |
| MSFSQAVSGLNAAATNLDVIGNNIANSATYGFKSGTASFADMFAGSKVGLGVKVAGITQDFTDGTTTNTGRGLDVAISQNGFFRLVDSNGSVFYSRNGQFKLDENRNLVNMQGMQLTGYPATGTPPTIQQGANPAPITIPNTLMAAKSTTTASMQINLNSTDPVPSKTPFSVSDADSYNKKGTVTVYDSQGNAHDMNVYFVKTKDNEWAVYTHDSSDPAATAPTTASTTLKFNENGILESGGTVNITTGTINGATAATFSLSFLNSMQQNTGANNIVATNQNGYKPGDLVSYQINNDGTVVGNYSNEQEQVLGQIVLANFANNEGLASQGDNVWAATQASGVALLGTAGSGNFGKLTNGALEASNVDLSKELVNMIVAQRNYQSNAQTIKTQDQILNTLVNLR | not soluble |
| GSPGIPGSTSELEEDFAKILMLKEERIKELEKRLSEKEEEIQELKRKLHKCQSVLPVPSTHIGPRTT | soluble |
| MVNKMDIIPEITRKSITDLINNKERIDGRSLHEFRDISIETGVISKAEGSSRVKLGNTQIIVGVKPQIGEPFPDTPEMGVILTNSELLPMASPTFEPGPPDERSVELSRVVDRCIRESRMIDLEKLCIIEGSKVWMLFLDLHIIDYDGNLFDAAVLATVAALLDTRIPAAEVEDGEVVINREKMQPLPVNRKALMCTFAKIGNEIVLDPSLEEEDILTARISIGVTEEGSICAMQKGGEGPLTRDDVLKAVSIAVEKVPQLIEYLDKSMTP | soluble |
| HMSKVPRNFRLLEELEKGEKGFGPESCSYGLADSDDITMTKWNGTILGPPHSNHENRIYSLSIDCGPNYPDSPPKVTFISKINLPCVNPTTGEVQTDFHTLRDWKRAYTMETLLLDLRKEMATPANKKLRQPKEGETF | soluble |
| MSLLQSALDFLAGPGSLGGASGRDQSDFVGQTVELGELRLRVRRVLAEGGFAFVYEAQDVGSGREYALKRLLSNEEEKNRAIIQEVCFMKKLSGHPNIVQFCSAASIGKEESDTGQAEFLLLTELCKGQLVEFLKKMESRGPLSCDTVLKIFYQTCRAVQHMHRQKPPIIHRDLKVENLLLSNQGTIKLCDFGSATTISHYPDYSWSAQRRALVEEEITRNTTPMYRTPEIIDLYSNFPIGEKQDIWALGCILYLLCFRQHPFEDGAKLRIVNGKYSIPPHDTQYTVFHSLIRAMLQVNPEERLSIAEVVHQLQEIAAARNVNPKSPITELLEQNGGYGSATLSRGPPPPVGPAGSGYSGGLALAEYDQPYGGFLDILRGGTERLFTNLKDTSSKVIQSVANYAKGDLDISYITSRIAVMSFPAEGVESALKNNIEDVRLFLDSKHPGHYAVYNLSPRTYRPSRFHNRVSECGWAARRAPHLHTLYNICRNMHAWLRQDHKNVCVVHCMDGRAASAVAVCSFLCFCRLFSTAEAAVYMFSMKRCPPGIWPSHKRYIEYMCDMVAEEPITPHSKPILVRAVVMTPVPLFSKQRSGCRPFCEVYVGDERVASTSQEYDKMRDFKIEDGKAVIPLGVTVQGDVLIVIYHARSTLGGRLQAKMASMKMFQIQFHTGFVPRNATTVKFAKYDLDACDIQEKYPDLFQVNLEVEVEPRDRPSREAPPWENSSMRGLNPKILFSSREEQQDILSKFGKPELPRQPGSTAQYDAGAGSPEAEPTDSDSPPSSSADASRFLHTLDWQEEKEAETGAENASSKESESALMEDRDESEVSDEGGSPISSEGQEPRADPEPPGLAAGLVQQDLVFEVETPAVLPEPVPQEDGVDLLGLHSEVGAGPAVPPQACKAPSSNTDLLSCLLGPPEAASQGPPEDLLSEDPLLLASPAPPLSVQSTPRGGPPAAADPFGPLLPSSGNNSQPCSNPDLFGEFLNSDSVTVPPSFPSAHSAPPPSCSADFLHLGDLPGEPSKMTASSSNPDLLGGWAAWTETAASAVAPTPATEGPLFSPGGQPAPCGSQASWTKSQNPDPFADLGDLSSGLQGSPAGFPPGGFIPKTATTAKGSSSWQTSRPPAQGASWPPQAKPPPKACTQPRPNYASNFSVIGAREERGVRAPSFAQKPKVSENDFEDLLSNQGFSSRSDKKGPKTIAEMRKQDLAKDTDPLKLKLLDWIEGKERNIRALLSTLHTVLWDGESRWTPVGMADLVAPEQVKKHYRRAVLAVHPDKAAGQPYEQHAKMIFMELNDAWSEFENQGSRPLF | soluble |
| MGHHHHHHSHGNLVTELIYVHSKLLIADDNTVIIGSANINDRSMLGKRDSEMAVIVQDTETVPSVMDGKEYQAGRFARGLRLQCFRVVLGYLDDPSEDIQDPVSDKFFKEVWVSTAARNATIYDKVFRCLPNDEVHNLIQLRDFINKPVLAKEDPIRAEEELKKIRGFLVQFPFYFLSEESLLPSVGTKEAIVPMEVWT | not soluble |
| MSLDYDLLIKNGQTVNGMPVEIAIKEKKIAAVAATISGSAKETIHLEPGTYVSAGWIDDHVHCFEKMALYYDYPDEIGVKKGVTTVIDAGTTGAENIHEFYDLAQQAKTNVFGLVNISKWGIVAQDELADLSKVQASLVKKAIQELPDFVVGIKARMSRTVIGDNGITPLELAKQIQQENQEIPLMVHIGSAPPHLDEILALMEKGDVLTHCFNGKENGILDQATDKIKDFAWQAYNKGVVFDIGHGTDSFNFHVAETALREGMKAASISTDIYIRNRENGPVYDLATTMEKLRVVGYDWPEIIEKVTKAPAENFHLTQKGTLEIGKDADLTIFTIQAEEKTLTDSNGLTRVAKEQIRPIKTIIGGQIYDNEGHHHHHH | soluble |
| MAHHHHHHMGGRTAFEDVCANEAKAWSICLETNLGGKDVRKKCGEQQQTFDTCVSAWRTKVGNAVQVKGENEGDPPFQCASMACHIGECLRKYNYDFDRCEPHTQFFKYCVKSFYGQDYIS | not soluble |
| MLFLDSQFVYGAGAQLFNHFCYFFGTQQKFPPFLSIDENQYIIFIATEQFIREIKLLIALLLNENTAKYFQKALLCLKERKLVKIAKVGNVIEFKNGLTGVVEKVNENSVIVDVTIMDNYRDLELDSLTVVNHKNYKIIRDSYLEHHHHHH | soluble |
| MAHHHHHHMRRVVITGLGLVSPLASGVEETWKRLLAGESGARRVTEFEVDDLACQIACRIPVGDGTNGTFNPDLHMDPKEQRKVDPFIVYAVGAADQALDDAGWHPENDEDQVRTGVLIGSGIGGIEGIVEAGYTLRDKGPRRISPFFIPGRLINLASGHVSIKHKLRGPNHSVVTACATGTHAIGDAARLIAFGDADVMVAGGTESPVSRISLAGFAACKALSTERNDDPTAASRPYDEDRDGFVMGEGAGIVVLEELEHALARGAKIYAEVIGYGMSGDAFHITAPTESGEGAQRCMVAALKRAGIVPDEIDYINAHGTSTMADTIELGAVERVVGEAAAKISMSSTKSSIGHLLGAAGAAEAVFSTLAIRDNIAPATLNLDNPAAQTRIDLVPHKPRERKIDVALSNSFGFGGTNASLVLRRYTA | soluble |
| MPQYKLTYFDLRGWAEPARQLFHLSHTPYDDIRIPMADTEGKWEKMRDKTPFGQLPVLNVDGFDIPQSAAICRYLAKKFGYAGKTPEEEAWADAVVDQFKDFSVAFKTLLFATRAGKPEEEILKIRYEIFNPARDVYFILLNRILKKSKSGYLVGDGLTWADLVIADNLHSLEKLRAIDDDDEGHQNLKKYKEKIYGTPDLEDHIATRMDTEV | not soluble |
| MSQSSDASEKEKPKEKKSQEELEKELDKELKKGGEPKTKKDDQIHKIGETFKAGHTNFTVNKVDRVQKGEYMNVGGAVNEETKTIKDDEERLIIEVTMENIGEDSISYNFIGFDLRDKNDQSVRPVFSIEEKGRILMGGTLVSGKKVTGVLSYVIPKGEQKHYTLVYNPFLADTNSSNTEERVKDDIDYLVKLDLEHHHHHH | soluble |
| MGSDKIHHHHHHMLEQTLLDIALDLSQSLPKKALYQRFMTAVNQVMPCDAVALLEYQGHELVPVAVDGLLPEVLGMGFSPEDHPRLQAIMASKQPIRFNADSELADPYDGYLVIDPKRVLDVHACIGCSLFVEGRLVGVLTLDALNVGAFDAIDDITIATLAALAAATIRNVNLLNQLDRQQYKLDDNDSVFKQKPLKKSDFIGETPCMQALKDDIRIVANSELSVIIGGETGVGKELVARSLHAQSKRRAQALVQVNCAALPDTLAESELFGHSKGAFTGAAKDRMGKFELAHQGTLFLDEVGELSLELQAKLLRVIQEGEIQRIGLDRNIHVDVRIIAASNRNLLQRVKEGLFREDLYHRLCVYPLNVPPLRERQDDIPLLCGNILTNLKHKIGLSSAKTVRLTQAAMQKLQGYPWPGNVRELQHVLMRAALKASAEAKGITVIQLHHLTFACEPMSQGLTELTAFNSNSPDSNPSTSDETFAAANREEKVEPPVISRSFNDRVADFQRQVIRQSLDDNSQVWAKAARQLQLDRGNLHRQAKRLGLIP | not soluble |
| MTIGFLGTGKISASMVDGLMRSVFDVPSIILSPRNAKRAEHLSRNYDKVIIAENNQALLDVCDCVFLCLPNQIAEEVLRSLRFRPEQLVVSVLAMAKAAEVEEWINHKVYRAVPLPFVAECKNLTPIYPDHPFLRSLFDALGGTLVLDAEEQFNLFMTAGSLMGVYFNFIETAHKWFITQGLKKQQSADFLAMMFGNLTDEMRKIMDQDCSTSLDFALLEKEFSTKGGTNELLSHCFSHQGGRSALTTALETTLQKINAPFTY | not soluble |
| MYPSDFASQLNVLSLKEMKEAIHHLLDIRDENTWMLFGTLPIYPCLNDEYDQHLLQRLRKSKNVTMRNDPDGRSRLNVNVFTGDVIVTDFGDENGTISNIQKDKLTDVFNQWLNTDLAQSLNCHCAEYQCLGPNVLVKNMYYPNTDFKKKEQIMHQHQIFS | not soluble |
| MLHLIVLLVALSSAVTAGRPRRALDGLDGSGFGFDKRALNSLDGAGFGFEKRALNSLDGQGFGFEKRALDGLDGAGFGFDKRALNSLDGAGFGFEKRALDGLDGSGFGFDKRALNSLDGAGFGFEKRALNSLDGAGFGFEKRALDGLDGAGFGFDKRALNSLDGAGFGFEKRALDGLDGAGFGFDKRALNSLDGNGFGFDKRTFKHSSNKLRSVFRNLKGFKQH | not soluble |
